Measurements from publication PMC7332683, “A ferredoxin-dependent dihydropyrimidine dehydrogenase in Clostridium chromiireducens” (Bioscience Reports, 2020).

T1: PydAc (Clostridium chromiireducens, UniProt A0A399ILH0)
T1 construct: gene preA; FMN and two Fdx domains, no FAD/NADPH domain; strain C1 (DSM12136) is given only for the growth test
T1 sequence (A0A399ILH0 1-499): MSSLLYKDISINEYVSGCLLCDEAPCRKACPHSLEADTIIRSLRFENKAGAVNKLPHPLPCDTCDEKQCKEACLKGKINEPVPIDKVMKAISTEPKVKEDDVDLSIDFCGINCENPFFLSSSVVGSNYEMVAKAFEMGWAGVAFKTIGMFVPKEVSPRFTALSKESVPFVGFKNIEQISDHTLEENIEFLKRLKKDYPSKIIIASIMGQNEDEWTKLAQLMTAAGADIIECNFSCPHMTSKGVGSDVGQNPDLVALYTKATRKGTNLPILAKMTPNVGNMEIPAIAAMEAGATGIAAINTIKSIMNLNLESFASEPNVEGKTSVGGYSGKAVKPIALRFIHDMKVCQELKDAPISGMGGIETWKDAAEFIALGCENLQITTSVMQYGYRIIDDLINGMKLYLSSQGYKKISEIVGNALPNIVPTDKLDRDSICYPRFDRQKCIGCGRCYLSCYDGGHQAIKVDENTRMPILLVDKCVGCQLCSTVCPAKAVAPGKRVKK


Key:
PydAc = biological target: T1, PydAc; experiment: spectrophotometric assay of reduced methyl viologen oxidation at […] nm, anaerobic; activity with and without added FMN; format: biochemical; conditions: 15 uM FMN added, uracil, pH 7.5, predominantly apo recombinant enzyme
purified protein = substrate: O=c1cc[nH]c(=O)[nH]1; experiment: purified protein; format: biochemical, Clostridium chromiireducens; conditions: 0.1 mM reduced methyl viologen (MV+), 15 uM FMN, 0.1 M KCl, 20 mM Tris-HCl, pH 7.5, 0.2 uM reconstituted PydAc

Molecule | spectrophotometric assay of reduced methyl viologen oxidation at 600 nm, anaerob (PydAc) | Km (purified protein) | kcat (purified protein)
Cc1cc2nc3c(=O)[nH]c(=O)nc-3n(C[C@H](O)[C@H](O)[C@H](O)COP(=O)(O)O)c2cc1C [FMN] | omission of FMN from the assay mixture led to a large decrease in activity |  | 
PydAc (Clostridium chromiireducens) (protein, FMN and two Fdx domains, no FAD/NADPH domain; strain C1 (DSM12136) is given only for the growth test) MSSLLYKDISINEYVSGCLLCDEAPCRKACPHSLEADTIIRSLRFENKAGAVNKLPHPLPCDTCDEKQCKEACLKGKINEPVPIDKVMKAISTEPKVKEDDVDLSIDFCGINCENPFFLSSSVVGSNYEMVAKAFEMGWAGVAFKTIGMFVPKEVSPRFTALSKESVPFVGFKNIEQISDHTLEENIEFLKRLKKDYPSKIIIASIMGQNEDEWTKLAQLMTAAGADIIECNFSCPHMTSKGVGSDVGQNPDLVALYTKATRKGTNLPILAKMTPNVGNMEIPAIAAMEAGATGIAAINTIKSIMNLNLESFASEPNVEGKTSVGGYSGKAVKPIALRFIHDMKVCQELKDAPISGMGGIETWKDAAEFIALGCENLQITTSVMQYGYRIIDDLINGMKLYLSSQGYKKISEIVGNALPNIVPTDKLDRDSICYPRFDRQKCIGCGRCYLSCYDGGHQAIKVDENTRMPILLVDKCVGCQLCSTVCPAKAVAPGKRVKK |  | 0.13 ± 0.03 mM | 0.92 ± 0.04 s⁻¹
